Patent US20240293588A1, “THERAPEUTIC CONJUGATES” (Starpharma Pty Ltd, priority 2020, published 2024)
Values belong to the binder of their own block, whether it stands above or below them.

Key:
[1] = target: T1, HER2 (human epidermal growth factor receptor 2) on cells (human, UniProt P04626 23-1255); test: flow cytometry (Cy5), MDA-MB-231/HER2 cells, 4 h
T1 construct: whole, on cells; also called ERBB2; HER2 receptor

[2] = target: T1, HER2 (human epidermal growth factor …); test: flow cytometry (Cy5), MDA-MB-231/HER2 cells, 2 h
[3] = target: T1, HER2 (human epidermal growth factor …); test: flow cytometry (Cy5), MDA-MB-231 parental cells (HER2 lo, control), 0.25 h
[4] = target: T1, HER2 (human epidermal growth factor …); test: flow cytometry (Cy5), MDA-MB-231 parental cells (HER2 lo, control), 3.33 nM, 37 °C, 2 h
Protocol: (§1) After incubation, non-binding/non-associating particles were removed from adherent cells by gently washing with DPBS three times (300 μL/well). Cells were removed from plates by treatment with TrypLE™ Express Enzyme (1×), no phenol red (150 μL/well) for 5-10 min at room temperature. The plates were then placed on ice. Cellular binding and association of sample were then determined through flow cytometry by the acquisition of the signal from Cy5.
(§2) To measure internalisation kinetics, nanobody-dendrimer was incubated with cells for 24, 4, 1, 0.5, and 0.1 hours at 37° C. before unbound nanobody-dendrimer was removed by washing and analysed by flow cytometry.

[5] = target: T1, HER2 (human epidermal growth factor …); test: flow cytometry (Cy5), MDA-MB-231 parental cells (HER2 lo, control), 1 h
[6] = target: T1, HER2 (human epidermal growth factor …); test: flow cytometry (Cy5), MDA-MB-231/HER2 cells, 24 h
[7] = target: T1, HER2 (human epidermal growth factor …); test: flow cytometry (Cy5), MDA-MB-231 parental cells (HER2 lo, control), 3.33 nM, 37 °C, 24 h
Protocol: as §1, §2

[8] = target: T1, HER2 (human epidermal growth factor …); test: flow cytometry (Cy5), MDA-MB-231 parental cells (HER2 lo, control), 3.33 nM, 37 °C, 4 h
Protocol: as §1, §2

[9] = target: T1, HER2 (human epidermal growth factor …); test: flow cytometry (Cy5), MDA-MB-231 parental cells (HER2 lo, control), 4 h
[10] = target: T1, HER2 (human epidermal growth factor …); test: flow cytometry (Cy5), HER2-positive MDA-MB-453 cells, triplicate wells
[11] = target: T1, HER2 (human epidermal growth factor …); test: flow cytometry (Cy5), MDA-MB-231 parental cells (HER2 lo, control), 3.33 nM, 37 °C, 0.25 h
Protocol: as §1, §2

[12] = target: T1, HER2 (human epidermal growth factor …); test: flow cytometry (Cy5), MDA-MB-231 parental cells (HER2 lo, control), 0.5 h
[13] = target: T1, HER2 (human epidermal growth factor …); test: flow cytometry (Cy5), MDA-MB-231 parental cells (HER2 lo, control), 3.33 nM, 37 °C, 0.5 h
Protocol: as §1, §2

[14] = target: T1, HER2 (human epidermal growth factor …); test: flow cytometry (Cy5), MDA-MB-231/HER2 cells, 1 h
[15] = target: T1, HER2 (human epidermal growth factor …); test: flow cytometry (Cy5), MDA-MB-231/HER2 cells, 3.33 nM, 37 °C, 1 h
[16] = target: T1, HER2 (human epidermal growth factor …); test: flow cytometry (Cy5), MDA-MB-231 parental cells (HER2 lo, control), 2 h
[17] = target: T1, HER2 (human epidermal growth factor …); test: flow cytometry (Cy5), MDA-MB-231 parental cells (HER2 lo, control), 24 h
[18] = target: T1, HER2 (human epidermal growth factor …); test: flow cytometry (Cy5), MDA-MB-231/HER2 cells, 3.33 nM, 37 °C, 0.5 h
Protocol: as §1, §2

[19] = target: T1, HER2 (human epidermal growth factor …); test: flow cytometry (Cy5), MDA-MB-231/HER2 cells, 3.33 nM, 37 °C, 24 h
[20] = target: T1, HER2 (human epidermal growth factor …); test: flow cytometry (Cy5), MDA-MB-231/HER2 cells, 0.25 h
[21] = target: T1, HER2 (human epidermal growth factor …); test: flow cytometry (Cy5), MDA-MB-231/HER2 cells, 3.33 nM, 37 °C, 4 h
[22] = target: T1, HER2 (human epidermal growth factor …); test: flow cytometry (Cy5), MDA-MB-231/HER2 cells, 3.33 nM, 37 °C, 0.25 h
Protocol: as §1, §2

[23] = target: T1, HER2 (human epidermal growth factor …); test: flow cytometry (Cy5), MDA-MB-231 parental cells (HER2 lo, control), 3.33 nM, 37 °C, 1 h
[24] = target: T1, HER2 (human epidermal growth factor …); test: flow cytometry (Cy5), MDA-MB-231/HER2 cells, 0.5 h
[25] = target: T1, HER2 (human epidermal growth factor …); test: flow cytometry (Cy5), MDA-MB-231/HER2 cells, 3.33 nM, 37 °C, 2 h

MFI [1]: 800
MFI [2]: 445
MFI [3]: 246
percent of cellular association [4]: 1.13%
MFI [5]: 237
MFI [6]: 1110
percent of cellular association [7]: 0.83%
percent of cellular association [8]: 0.93%
MFI [9]: 250
MFI [10]: 50.8
percent of cellular association [11]: 1.07%
MFI [12]: 228
percent of cellular association [13]: 0.87%
MFI [14]: 294
percent of cellular association [15]: 2.57%
MFI [16]: 241
MFI [17]: 224
percent of cellular association [18]: 0.6%
percent of cellular association [19]: 60.7%
MFI [20]: 235
percent of cellular association [21]: 50.6%
percent of cellular association [22]: 0.67%
percent of cellular association [23]: 0.8%
MFI [24]: 226
percent of cellular association [25]: 17.4%
B1: Nanobody*-N3/DBCO-NHCO-PEG12TCO/(MeTzPh)PEG4CO-NHPEG24CO-[N(PN)2][Lys]4[Lys]8[((α-NHCy5)1(α-NHAc)7)(ε-NH-COPEG1100)8], Compound 124 (VHH)
VHH: EVQLVESGGSLVQPGGSLRLSCAASGFTFDDYAMSWVRQVPGKGLEWVSSINWSGTHTDYADSVKGRFTISRNNANNTLYLQMNSLKSEDTAVYYCAKNWRDAGTTWFEKSGSAGQGTQVTVSS
modifications: C-terminal # (unnatural amino acid, p-azido-phenylalanine) clicked to DBCO-NHCO-PEG12-TCO, joined to the tetrazine at the core of the G3 lysine dendrimer Compound 52 (1 Cy5, 7 acetyl, 8 PEG1100)
notes: also called G3 2D3 conjugated dendrimer

MFI [1]: 611
MFI [2]: 342
MFI [3]: 227
percent of cellular association [4]: 0.77%
MFI [5]: 230
MFI [6]: 1010
percent of cellular association [7]: 0.87%
percent of cellular association [8]: 0.83%
MFI [9]: 246
MFI [10]: 158
percent of cellular association [11]: 0.87%
MFI [12]: 223
percent of cellular association [13]: 0.53%
MFI [14]: 241
percent of cellular association [15]: 0.77%
MFI [16]: 236
MFI [17]: 219
percent of cellular association [18]: 0.67%
percent of cellular association [19]: 56.3%
MFI [20]: 215
percent of cellular association [21]: 36%
percent of cellular association [22]: 0.57%
percent of cellular association [23]: 1%
MFI [24]: 224
percent of cellular association [25]: 6.13%
B2: Nanobody*-N3/DBCO-NHCO-PEG12TCO/((MeTzPh)PEG4CO-NHPEG24CO-[N(PN)2][Lys]2[Lys]4[Lys]8[Lys]16[((α-NHCy5)1(α-NHAc)15)(ε-NH-COPEG1100)16, Compound 125 (VHH)
VHH: B1 VHH
modifications: C-terminal # (unnatural amino acid, p-azido-phenylalanine) clicked to DBCO-NHCO-PEG12-TCO, joined to the tetrazine at the core of the G4 lysine dendrimer Compound 53 (1 Cy5, 15 acetyl, 16 PEG1100)
notes: also called G4 2D3 conjugated dendrimer

MFI [1]: 1040
MFI [2]: 436
MFI [3]: 195
percent of cellular association [4]: 0.73%
MFI [5]: 254
MFI [6]: 2750
percent of cellular association [7]: 0.8%
percent of cellular association [8]: 0.67%
MFI [9]: 247
MFI [10]: 177
percent of cellular association [11]: 0.53%
MFI [12]: 245
percent of cellular association [13]: 1.03%
MFI [14]: 295
percent of cellular association [15]: 2.8%
MFI [16]: 233
MFI [17]: 223
percent of cellular association [18]: 0.7%
percent of cellular association [19]: 73.5%
MFI [20]: 207
percent of cellular association [21]: 59.8%
percent of cellular association [22]: 0.43%
percent of cellular association [23]: 1.37%
MFI [24]: 237
percent of cellular association [25]: 18%
B3: Nanobody*-N3/DBCO-NHCO-PEG12TCO/(MeTzPh)PEG4CO-NHPEG24CO-[N(PN)2][Lys]2[Lys]4[Lys]8[Lys]16[Lys]32[((α-NHCy5)1(α-NHAc)31)(ε-NH-COPEG1100)32], Compound 126 (VHH)
VHH: B1 VHH
modifications: C-terminal # (unnatural amino acid, p-azido-phenylalanine) clicked to DBCO-NHCO-PEG12-TCO, joined to the tetrazine at the core of the G5 lysine dendrimer Compound 54 (1 Cy5, 31 acetyl, 32 PEG1100)
notes: G5 2D3 conjugated dendrimer
